Broadly, the Kd is a measure of binding affinity in units of concentration. Low readings indicate higher affinity, high ones lower affinity. The koff is the rate constant with which the complex falls apart. As usually defined, the kon is the second-order rate constant of association.

B1: hu167-31 (antibody, V domains shown)
VH: QVQLVQSGAEVKKPGASVKVSCKASGYTFTSYWMHWVRQAPGQGLEWMGNIDPSDSETHYNQKFKDRVTMTRDTSISTAYMELSRLRSDDTAVYYCARWGYLGRSAMDYWGQGTTVTVSS
VL: DVQMTQSPSSLSASVGDRVTITCRTSKSISKFLAWYQQKPGKAPKLLIYSGSTLQSGVPSRFSGSGSGTDFTLTISSLQPEDFATYYCQQHNEYPWTFGGGTKVEIK
B2: hu167-32 (antibody, V domains shown)
VH: B1 VH
VL: B1 VL with V2I, M4I
B3: hu167-33 (antibody, V domains shown)
VH: B1 VH
VL: B1 VL with M4I
B4: chimeric antibody ch-167 (antibody, V domains shown)
VH: QVQLQQPGAELVRPGSSVKLSCKASGYTFTSYWMHWVKQRPIQGLEWVGNIDPSDSETHYNQKFKDKATLTVDKSSSTAYMQLSSLTSEDSAVYYCARWGYLGRSAMDYWGQGTSVTVSS
VL: DVQITQSPSYLAASPGETITINCRTSKSISKFLAWYQEKPGKTHKLLIYSGSTLQSGIPSRFSGSGSGTDFTLTISSLEPEDFAMYYCQQHNEYPWTFGGGTKLEIK
B5: hu167-1 (antibody, V domains shown)
VH: B1 VH
VL: B1 VL with V2I
B6: hu055-1 (antibody, V domains shown)
VH: QVQLVQSGAEVKKPGASVKVSCKASGYTFTSSYLHWVRQAPGQRLEWMGWIYPESGNTKYNERFKGRVTITRDTSASTAYMELSSLRSEDTAVYYCARRGDVFFAYWGQGTTVTVSS
VL: DIVMTQSPDSLAVSLGERATINCKSSQSLLTSGKQKNYLTWYQQKPGQPPKLLIYWASTRESGVPDRFSGSGSGTDFTLTISSLQAEDVAVYYCQNDYSYPLTFGQGTKLEIK
B7: hu055-5 (antibody, V domains shown)
VH: B6 VH with E46D, M48I, V68A, I70L, R72A
VL: DIVMTQSPDSLAVSLGERATINCKSSQSLLTSGKQKNYLTWYQQKPGQPPKLLIYWASTRESGVPDRFSGSGSGTDFTLTISSLQAEDVAVYYCQNDYSYPLTFGQGTKLEIKR
B8: hu055-8 (antibody, V domains shown)
VH: B6 VH
VL: B6 VL with D66E
B9: chimeric antibody ch-055 (antibody, V domains shown)
VH: QVLLQQSGPELVQPGASVKISCKASGYSFTSSYLHWVKQRPGQGLDWIGWIYPESGNTKYNERFKGKATLTADTSSSTAYMQLSSLTSEDSAVYYCSRRGDVFFAYWGQGTTLTVSS
VL: DIVMTQSPSYLTVTAGEKVTMSCKSSQSLLTSGKQKNYLTWYQQKPGQPPKLLIYWASTRESGVPERFRGSGSGTDFTLTISSVQAEDLAVYYCQNDYSYPLTFGAGTKLELN

Positions count from the first letter of the chain named.

In one test the target is human CD47-his (Sino Biological, CAT#12283-HCCH-50) (human) (UniProt Q08722). The test is described as follows: SPR (Biacore), KD compared with hu167-4.
As to B1, the KD ratio against hu167-4 came to 1.3.

B2: the KD ratio against hu167-4 was 1.2.

Consider B3, for which the KD ratio against hu167-4 was found to be 0.98.

The target of the next test is T1, human CD47-his (Sino Biological, CAT#12283-HCCH-50) (human, UniProt Q08722 19-139, limits assumed).
T1 construct: Bought protein used as analyte in Biacore; also called 人CD47-his; human CD47-his antigen; not shown: His tag of the bought protein
The experiment in a line: SPR (Biacore): antibody captured with human Fab capture kit on CM5 chip, human CD47-his flowed over.
Take B4: the “KD fold difference (against ch-167)” value worked out at 1, binding was put at a Kd of 0.325 nM, the dissociation rate constant (koff) came out at 0.000558 s⁻¹ and the on-rate (kon) amounted to 1.72e+06 M⁻¹ s⁻¹.

On to B5, for which the “KD fold difference (against ch-167)” value was determined as 2.04, binding was put at a Kd of 0.664 nM, the koff came to 0.000991 s⁻¹ and the kon is 1.49e+06 M⁻¹ s⁻¹.

With B6, the “KD fold difference (against ch-055)” value was 3.5, the dissociation constant Kd worked out at 0.585 nM, the off-rate constant (koff) turned out to be 0.000976 s⁻¹ and the kon is 1.67e+06 M⁻¹ s⁻¹.

For the molecule B7, the “KD fold difference (against ch-055)” value is 1.1, the dissociation constant Kd came out at 0.182 nM, the dissociation rate constant (koff) turned out to be 0.000382 s⁻¹ and the on-rate (kon) was determined as 2.1e+06 M⁻¹ s⁻¹.

As to B8, the “KD fold difference (against ch-055)” value worked out at 3.7, binding was put at a Kd of 0.617 nM, the koff stood at 0.000987 s⁻¹ and the on-rate constant (kon) worked out at 1.6e+06 M⁻¹ s⁻¹.

With B9, the “KD fold difference (against ch-055)” value turned out to be 1, binding was characterised by a dissociation constant (Kd) of 0.167 nM, the koff was 0.000389 s⁻¹ and the on-rate (kon) was 2.32e+06 M⁻¹ s⁻¹.

A further test deals with natural CD47 on the surface of CCRF-CEM cells (UniProt Q08722). The test is described as follows: flow cytometry on CCRF-CEM cells, sample at 1 ug/ml, Alexa Fluor 488 goat anti-human (H+L); blank control 30.0. For orientation: A flow cytometer gives signals particle by particle.
IgG4-Fc control gave a flow cytometry binding signal (流式结合信号) of 65.1.

Another test has the same target. The test is described as follows: flow cytometry on CCRF-CEM cells, antibody at 1 ug/ml, Alexa Fluor 488 goat anti-human (H+L); blank control 30.0.
B3 registered a flow cytometry binding signal (流式结合信号) of 27800.

The values above are taken from patent WO2018095428A1 (dated 2018).
